US20180127505A1, “HUMANIZED ANTI-AXL ANTIBODIES AND THEIR CONJUGATES” (MEDIMMUNE LIMITED, priority 2015, published 2018)

Key:
[1] = molecular target: T1, AXL on MDA-MB-231 cells (UniProt P30530 26-894, limits assumed); test: cell-based or functional assay
T1 sequence (looked up): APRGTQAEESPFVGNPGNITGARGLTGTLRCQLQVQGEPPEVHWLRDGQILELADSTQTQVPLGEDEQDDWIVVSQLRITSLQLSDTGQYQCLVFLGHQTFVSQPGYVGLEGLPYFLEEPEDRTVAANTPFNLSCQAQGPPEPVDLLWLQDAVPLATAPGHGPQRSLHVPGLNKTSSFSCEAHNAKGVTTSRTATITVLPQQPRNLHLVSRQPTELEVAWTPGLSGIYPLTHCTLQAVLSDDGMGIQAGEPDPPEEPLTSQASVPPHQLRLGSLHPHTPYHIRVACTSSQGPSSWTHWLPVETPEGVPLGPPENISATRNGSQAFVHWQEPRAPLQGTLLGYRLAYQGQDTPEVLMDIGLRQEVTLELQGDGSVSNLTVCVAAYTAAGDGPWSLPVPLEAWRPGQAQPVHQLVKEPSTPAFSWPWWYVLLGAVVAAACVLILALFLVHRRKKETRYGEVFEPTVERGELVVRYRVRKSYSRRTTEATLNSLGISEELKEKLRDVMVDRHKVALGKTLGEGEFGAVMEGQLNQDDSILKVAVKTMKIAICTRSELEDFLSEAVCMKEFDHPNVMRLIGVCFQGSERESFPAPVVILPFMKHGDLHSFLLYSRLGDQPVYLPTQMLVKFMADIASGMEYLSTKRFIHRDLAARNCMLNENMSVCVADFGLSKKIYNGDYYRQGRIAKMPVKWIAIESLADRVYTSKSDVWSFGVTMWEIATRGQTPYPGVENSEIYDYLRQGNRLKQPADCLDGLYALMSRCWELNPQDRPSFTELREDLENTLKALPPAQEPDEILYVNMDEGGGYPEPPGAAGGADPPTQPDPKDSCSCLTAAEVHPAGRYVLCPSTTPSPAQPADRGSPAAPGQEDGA

[2] = molecular target: T2, Human AXL-Strep-His (produced by Evitria AG in transiently transfected CHO cells) (human, UniProt P30530 26-451, limits assumed); test: human AXL ELISA (Protocol 4), untreated antibody of the accelerated stability analysis, OD 450nm against Log10[IgG (µg/mL)]
T2 construct: also called Axl-Strep-His antigen; human AxI-Strep-His; not shown: Strep and His tags
T2 sequence: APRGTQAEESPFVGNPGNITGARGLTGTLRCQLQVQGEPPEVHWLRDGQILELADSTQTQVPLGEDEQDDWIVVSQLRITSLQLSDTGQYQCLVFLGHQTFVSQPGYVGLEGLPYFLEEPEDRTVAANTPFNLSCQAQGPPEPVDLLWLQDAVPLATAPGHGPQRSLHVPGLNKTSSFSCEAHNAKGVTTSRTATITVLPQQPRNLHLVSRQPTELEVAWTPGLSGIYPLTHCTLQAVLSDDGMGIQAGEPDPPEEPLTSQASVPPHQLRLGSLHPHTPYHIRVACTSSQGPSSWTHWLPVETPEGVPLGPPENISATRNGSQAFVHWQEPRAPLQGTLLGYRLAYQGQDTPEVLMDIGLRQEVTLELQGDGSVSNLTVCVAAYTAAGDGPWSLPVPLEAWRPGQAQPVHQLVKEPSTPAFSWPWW

[3] = molecular target: T2, Human AXL-Strep-His (produced by …); test: SPR (Biacore T200), AXL-Strep-His amine-coupled to CM5 chip, antibody as analyte, bivalent model
[4] = molecular target: T3, Human Axl-Fc chimera (R&D Systems #154-AL) (human, UniProt P30530 26-451); test: SPR (Biacore T200), AXL-Fc amine-coupled to CM5 chip, antibody as analyte, bivalent model
T3 construct: Bought reagent; also called Axl-Fc antigen; AXL-Fc chimera antigen; Fc part of the bought chimera not given
T3 sequence: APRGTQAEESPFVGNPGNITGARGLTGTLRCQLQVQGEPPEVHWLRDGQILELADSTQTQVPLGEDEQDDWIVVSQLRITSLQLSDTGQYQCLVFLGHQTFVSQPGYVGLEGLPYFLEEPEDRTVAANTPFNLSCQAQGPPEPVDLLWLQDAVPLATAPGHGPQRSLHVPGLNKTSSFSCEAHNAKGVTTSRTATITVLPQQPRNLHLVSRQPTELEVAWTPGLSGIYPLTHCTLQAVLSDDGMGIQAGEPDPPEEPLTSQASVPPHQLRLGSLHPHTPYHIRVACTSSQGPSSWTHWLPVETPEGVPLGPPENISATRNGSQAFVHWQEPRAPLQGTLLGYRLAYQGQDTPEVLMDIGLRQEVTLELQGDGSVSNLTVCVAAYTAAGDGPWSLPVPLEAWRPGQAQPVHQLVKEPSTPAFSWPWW

[5] = molecular target: T2, Human AXL-Strep-His (produced by …); test: SPR (Biacore T200), AXL-Strep-His amine-coupled to CM5 chip, antibody as analyte, bivalent model; column head KD1
[6] = molecular target: T2, Human AXL-Strep-His (produced by …); test: ELISA on plate-coated human AXL-Strep-His (Protocol 4), OD 450nm against Log10[IgG (µg/mL)] [A. Human Axl]
[7] = molecular target: T4, Cynomolgus monkey AXL (Macaca fascicularis, UniProt A0A2K5WXE0); test: ELISA on cynomolgus monkey AXL (coating antigen not described in the text), OD 450nm against Log10[IgG (µg/mL)] [B. Cynomolgus monkey AXL]
T4 construct: form not described
T4 sequence (antigen): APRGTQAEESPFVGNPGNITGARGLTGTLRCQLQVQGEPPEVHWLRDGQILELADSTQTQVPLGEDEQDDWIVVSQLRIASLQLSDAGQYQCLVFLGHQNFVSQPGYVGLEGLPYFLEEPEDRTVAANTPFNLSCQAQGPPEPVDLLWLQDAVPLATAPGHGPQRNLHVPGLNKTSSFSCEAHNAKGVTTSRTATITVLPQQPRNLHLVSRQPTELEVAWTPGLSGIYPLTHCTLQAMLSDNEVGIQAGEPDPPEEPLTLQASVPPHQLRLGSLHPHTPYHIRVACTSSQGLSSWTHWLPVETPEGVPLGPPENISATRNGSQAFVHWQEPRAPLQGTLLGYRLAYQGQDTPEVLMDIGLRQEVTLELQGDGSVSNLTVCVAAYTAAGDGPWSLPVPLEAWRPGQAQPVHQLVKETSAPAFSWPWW

[8] = molecular target: T2, Human AXL-Strep-His (produced by …); test: SPR (Biacore T200), AXL-Strep-His amine-coupled to CM5 chip, antibody as analyte, heterogeneous ligand model
[9] = molecular target: T2, Human AXL-Strep-His (produced by …); test: SPR (Biacore T200), AXL-Strep-His amine-coupled to CM5 chip, antibody as analyte, heterogeneous ligand model; column head KD1; heterogeneous ligand model; AXL-Strep-His antigen

Row | EC50 (read off the curve) [2] [ng/mL] | Kd [4] [nM] | koff [4] [s⁻¹] | kon [4] [M⁻¹ s⁻¹] | EC50 (read off the curve) [7] [ng/mL] | Binder | GI50 (pg/ml), MDA-MB-231 cytotoxicity, MTS assay, 5 days [1] [pg/mL] | further results
1 |  |  |  |  |  | Ab2-ConjE (Ab2 conjugated to the ConjE PBD payload, DAR 2.4) (other, ConjE PBD drug-linker on cysteine thiol(s) of the antibody, sites not stated; DAR 2.4) VH: MGFKMESQFQVFVFVFLWLSGVDGQVQLVESGGGVVQPGRSLRLSCAASGFTFSSYGMSVRQAPGKGLEWVATISSGGSYTYYPDSVKGRFTISRDNSKNTLYLQMNSLRAEDTAVYYCARHPIYYTYDDTMDYWGQGTTVTVSS VL: EIVLTQSPATLSLSPGERATLSCSASSSVSSGNFHWYQQKPGLAPRLLIYRTSNLASGIPDRFSGSGSGTDFTLTISRLEPEDFAVYYCQQWSGYPWTFGPGTKVDIK | 73 | 
2 |  |  |  |  |  | Ab3-ConjE (Ab3 conjugated to the ConjE PBD payload, DAR 2.2) (other, ConjE PBD drug-linker on cysteine thiol(s) of the antibody, sites not stated; DAR 2.2) VH: MGFKMESQFQVFVFVFLWLSGVDGQVQLVESGGGVVQPGRSLRLSCAASGFTFSSYGMSVRQAPGKGLEWVATISSGGSYTYYPDSVKGRFTISRDNSKNTLYLQMNSLRAEDTAVYYCARHPIYYTYDDTMDYWGQGTTVTVSS VL: EIVLTQSPGTLSLSPGERATLSCSASSSVSSGNFHWYQQKPGLAPRLLIYRTSNLASGIPARFSGSGSGTDFTLTISSLEPEDFAVYYCQQWSGYPWTFGGGTKLEIK | 27.6 | 
3 | ~20 | 1.37 | 0.000396 | 290000 | ~20 | Ab4, anti-AXL antibody comprising VH SEQ ID NO. 3 and VL SEQ ID NO. 5 and a constant region derived from one or more human antibodies (antibody, V domains shown) VH: EVQLVESGGGLVQPGGSLRLSCAASGFTFSSYGMSWVRQAPGKGLEWVATISSGGSYTYYPDSVKGRFTISRDNAKNSLYLQMNSLRAEDTAVYYCARHPIYYTYDDTMDYWGQGTLVTVSS VL: EIVLTQSPATLSLSPGERATLSCSASSSVSSGNFHWYQQKPGLAPRLLIYRTSNLASGIPDRFSGSGSGTDFTLTISRLEPEDFAVYYCQQWSGYPWTFGPGTKVDIK |  | koff [3]: 0.00059 s⁻¹; kon [3]: 9760 M⁻¹ s⁻¹; Kd [5]: 60.4 nM; EC50 (read off the curve) [6]: ~30 ng/mL
4 |  |  |  |  |  | Ab4-ConjE (Ab4 conjugated to the ConjE PBD payload, DAR 2.6) (other, ConjE PBD drug-linker on cysteine thiol(s) of the antibody, sites not stated; DAR 2.6) VH: EVQLVESGGGLVQPGGSLRLSCAASGFTFSSYGMSWVRQAPGKGLEWVATISSGGSYTYYPDSVKGRFTISRDNAKNSLYLQMNSLRAEDTAVYYCARHPIYYTYDDTMDYWGQGTLVTVSS VL: EIVLTQSPATLSLSPGERATLSCSASSSVSSGNFHWYQQKPGLAPRLLIYRTSNLASGIPDRFSGSGSGTDFTLTISRLEPEDFAVYYCQQWSGYPWTFGPGTKVDIK | 64.2 | 
5 |  |  |  |  |  | Ab5-ConjE (Ab5 conjugated to the ConjE PBD payload, DAR 2.3) (other, ConjE PBD drug-linker on cysteine thiol(s) of the antibody, sites not stated; DAR 2.3) VH: EVQLVESGGGLVQPGGSLRLSCAASGFTFSSYGMSWVRQAPGKGLEWVATISSGGSYTYYPDSVKGRFTISRDNAKNSLYLQMNSLRAEDTAVYYCARHPIYYTYDDTMDYWGQGTLVTVSS VL: EIVLTQSPGTLSLSPGERATLSCSASSSVSSGNFHWYQQKPGLAPRLLIYRTSNLASGIPARFSGSGSGTDFTLTISSLEPEDFAVYYCQQWSGYPWTFGGGTKLEIK | 44 | 
6 | ~20 | 7.69 | 0.000159 | 20600 | ~30 | Ab5, anti-AXL antibody comprising VH SEQ ID NO. 3 and VL SEQ ID NO. 7 and a constant region derived from one or more human antibodies (antibody, V domains shown) VH: EVQLVESGGGLVQPGGSLRLSCAASGFTFSSYGMSWVRQAPGKGLEWVATISSGGSYTYYPDSVKGRFTISRDNAKNSLYLQMNSLRAEDTAVYYCARHPIYYTYDDTMDYWGQGTLVTVSS VL: EIVLTQSPGTLSLSPGERATLSCSASSSVSSGNFHWYQQKPGLAPRLLIYRTSNLASGIPARFSGSGSGTDFTLTISSLEPEDFAVYYCQQWSGYPWTFGGGTKLEIK |  | koff [3]: 0.000435 s⁻¹; kon [3]: 18900 M⁻¹ s⁻¹; Kd [5]: 23 nM
7 |  |  |  |  |  | Ab1-ConjE (Ab1 conjugated to the ConjE PBD payload, DAR 2.2) (other, ConjE PBD drug-linker on cysteine thiol(s) of the antibody, sites not stated; DAR 2.2) VH: EVQLVESGGDLVKPGGSLKLSCAASGFTFSSYGMSWVRQTPDKRLEWVATISSGGSYTYYPDSVKGRFTISRDNAKNTLYLQMSSLKSEDTAMYYCARHPIYYTYDDTMDYWGQGTSVTVSS VL: ENVLTQSPAIMAASPGEKVTMTCSASSSVSSGNFHWYQQKPGTSPKLWIYRTSNLASGVPARFSGSGSGTSYSLTISSMEAEDAATYYCQQWSGYPWTFGGGTKLEIK | 6.95 | 
8 | ~10 | 4.6 | 0.000142 | 30900 | ~20 | Ab1, anti-AXL antibody comprising the murine 1H12 VH (SEQ ID NO. 1) and VL (SEQ ID NO. 4) and a constant region derived from one or more human antibodies (antibody, V domains shown, also called Abl; chimeric 1H12) VH: EVQLVESGGDLVKPGGSLKLSCAASGFTFSSYGMSWVRQTPDKRLEWVATISSGGSYTYYPDSVKGRFTISRDNAKNTLYLQMSSLKSEDTAMYYCARHPIYYTYDDTMDYWGQGTSVTVSS VL: ENVLTQSPAIMAASPGEKVTMTCSASSSVSSGNFHWYQQKPGTSPKLWIYRTSNLASGVPARFSGSGSGTSYSLTISSMEAEDAATYYCQQWSGYPWTFGGGTKLEIK |  | koff [8]: 0.000533 s⁻¹; kon [8]: 13100 M⁻¹ s⁻¹; Kd [9]: 40.7 nM; EC50 (read off the curve) [6]: ~30 ng/mL
